Holding throughout (assay): EMSA
Details in all cases: tags: MBP fusion
(A gel shift assay detects complexes by their altered migration in electrophoresis.)

The target in one data set is ZFP SBS#1485 (synthetic). Summed up:
(§1)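 Purified ZFP was titrated against labeled double-stranded target (1 nM or lower, at least 10-fold below expected Kd) carrying the natural binding site with flanks. Binding buffer was 10 mM Tris pH 7.5, 100 mM KCl, 1 mM MgCl2, 0.1 mM ZnCl2, 5 mM DTT, 10% glycerol, 0.02% BSA, with equilibration for at least 45 min. Bound and free target were separated on a 10% polyacrylamide gel.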

The target in the next data set is T1, ZFP SBS#1465 (synthetic).
T1 chain: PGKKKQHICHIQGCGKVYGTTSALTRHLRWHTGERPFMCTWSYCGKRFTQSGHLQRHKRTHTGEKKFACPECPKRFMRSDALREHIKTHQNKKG
Summed up:
as §1

A further data set has as its target T2, ZFP SBS#1466 (synthetic).
T2 chain: T1 chain with T20N, T21R, S22A, A23T, T25A
An outline of the steps: as §1

The target of a further data set is T3, ZFP SBS#1490 (synthetic).
T3 chain: T1 chain with T20R, T21S, S22D, A23H, T25S, Q50T, H53S, Q55T
An outline of the steps: as §1

A further data set has as its target T4, ZFP SBS#1471 (synthetic).
T4 chain: T1 chain with T20R, T21S, S22D, A23H, T25S, G52S, H53A, Q55T
Summed up: as §1

A further data set has as its target ZFP SBS#1455 (synthetic). An outline of the steps: as §1
Another data set deals with ZFP SBS#1462 (synthetic). An outline of the steps:
as §1

The next data set deals with T5, ZFP SBS#1464 (synthetic).
T5 chain: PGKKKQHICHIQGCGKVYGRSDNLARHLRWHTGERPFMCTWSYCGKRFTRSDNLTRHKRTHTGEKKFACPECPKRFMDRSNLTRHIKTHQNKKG
An outline of the steps: as §1

In a further data set the target is T6, ZFP SBS#1461 (synthetic).
T6 chain: T5 chain with D22A
Summed up: as §1

The target in a further data set is T7, ZFP SBS#1473 (synthetic).
T7 chain: T1 chain with Q50R, G52D, H53N, Q55T, R56Q, A81S, R83T, E84T
Summed up: as §1

A further data set concerns the target T8, ZFP SBS#1476 (synthetic).
T8 chain: T5 chain with R20Q, D22S, N23A, R56Q, D78R, R79S, S80D, N81S, R84T
Summed up:
as §1

For a further data set, the target named is T9, ZFP SBS#1472 (synthetic).
T9 chain: T1 chain with Q50R, G52D, H53N, Q55T, R56Q, S79A, R83M, E84V
Summed up:
as §1

For another data set, the target named is T10, ZFP SBS#1474 (synthetic).
T10 chain: T5 chain with R20Q, D22S, N23A, R56Q, D78R, R79A, S80D, N81A, T83M, R84V
Summed up: as §1

Another data set deals with T11, ZFP SBS#1475 (synthetic).
T11 chain: T5 chain with R20Q, D22S, N23A, R56Q, D78R, R79L, S80H, N81S, R84T
An outline of the steps: as §1

In another data set the target is T12, ZFP SBS#1487 (synthetic).
T12 chain: T1 chain with Q50R, G52D, H53N, Q55T, R56Q, S79L, D80H, A81S, R83T, E84T
Summed up: as §1

Another data set addresses ZFP SBS#1484 (synthetic). An outline of the steps:
as §1

A further data set deals with T13, ZFP SBS#1491 (synthetic).
T13 chain: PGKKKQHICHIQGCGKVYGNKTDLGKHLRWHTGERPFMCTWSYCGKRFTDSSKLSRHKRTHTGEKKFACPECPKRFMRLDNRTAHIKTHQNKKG
Summed up:
as §1

In another data set the target is T14, ZFP SBS#1477 (synthetic).
T14 chain: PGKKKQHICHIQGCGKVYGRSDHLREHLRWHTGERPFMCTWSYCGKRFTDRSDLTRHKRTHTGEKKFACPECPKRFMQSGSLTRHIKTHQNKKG
An outline of the steps: as §1

A further data set concerns the target T15, ZFP SBS#1470 (synthetic).
T15 chain: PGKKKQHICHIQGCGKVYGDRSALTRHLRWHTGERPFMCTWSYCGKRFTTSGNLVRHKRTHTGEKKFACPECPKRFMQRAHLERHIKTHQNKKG
Summed up: as §1

The target in another data set is T16, ZFP SBS#1468 (synthetic).
T16 chain: T15 chain with Q78M, R79S, A80H, E83S
An outline of the steps:
as §1

In another data set the target is T17, ZFP SBS#1469 (synthetic).
T17 chain: T15 chain with Q78T, R79S, A80G, E83V
Summed up: as §1

Another data set addresses T18, ZFP SBS#1482 (synthetic).
T18 chain: T1 chain with T20D, T21R, A23N, Q50T, G52D, Q55A, R56S, A81E
Summed up: as §1

Another data set addresses T19, ZFP SBS#1483 (synthetic).
T19 chain: T1 chain with T20D, T21R, A23N, Q50M, G52H, Q55T, R56T, A81E
Summed up:
as §1

A further data set deals with ZFP SBS#1463 (synthetic). Summed up:
as §1

A further data set deals with ZFP SBS#1261 (synthetic). Summed up: as §1
In the next data set the target is ZFP SBS#1263 (synthetic). An outline of the steps:
as §1

The next data set has as its target ZFP SBS#558 (synthetic). An outline of the steps:
as §1

In a further data set the target is ZFP SBS#1262 (synthetic). Summed up: as §1
For the next data set, the target named is ZFP SBS#1454 (synthetic). Summed up:
as §1

The target in the next data set is ZFP SBS#1456 (synthetic). An outline of the steps: as §1
A further data set deals with T20, ZFP SBS#1479 (synthetic).
T20 chain: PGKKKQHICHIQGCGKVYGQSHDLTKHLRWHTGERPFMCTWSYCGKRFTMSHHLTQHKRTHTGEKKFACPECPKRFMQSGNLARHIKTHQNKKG
An outline of the steps:
as §1

In the next data set the target is T21, ZFP SBS#1480 (synthetic).
T21 chain: T20 chain with Q20N, S21K, H22T, T25G, M50T, H52G, T55V
Summed up:
as §1

For a further data set, the target named is T22, ZFP SBS#1481 (synthetic).
T22 chain: T13 chain with D50T, S52D, K53H, S55A, R56S, L79S, N81E, R82L, T83R, A84E
An outline of the steps:
as §1

Where a chain is given by its changes, count along the chain named.

This is an account of results in patent publication US20030068675, “Position dependent recognition of GNN nucleotide triplets by zinc fingers” (published 2003).

ZFP SBS#1484 (synthetic), sequence (chain, as listed by the source): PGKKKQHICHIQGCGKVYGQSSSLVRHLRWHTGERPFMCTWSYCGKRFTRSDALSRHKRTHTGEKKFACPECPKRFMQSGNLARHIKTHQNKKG
ZFP SBS#1455 (synthetic), sequence (chain, as listed by the source): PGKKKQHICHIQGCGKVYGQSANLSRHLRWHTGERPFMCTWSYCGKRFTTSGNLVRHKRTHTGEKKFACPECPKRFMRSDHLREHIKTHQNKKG
ZFP SBS#1462 (synthetic), sequence (chain, as listed by the source): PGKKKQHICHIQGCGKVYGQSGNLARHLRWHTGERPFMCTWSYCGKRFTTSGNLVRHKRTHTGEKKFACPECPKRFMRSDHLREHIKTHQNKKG
ZFP SBS#558 (synthetic), sequence (chain, as listed by the source): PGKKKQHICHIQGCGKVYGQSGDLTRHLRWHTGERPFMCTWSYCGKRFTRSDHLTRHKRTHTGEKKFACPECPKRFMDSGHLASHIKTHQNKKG
ZFP SBS#1262 (synthetic), sequence (chain, as listed by the source): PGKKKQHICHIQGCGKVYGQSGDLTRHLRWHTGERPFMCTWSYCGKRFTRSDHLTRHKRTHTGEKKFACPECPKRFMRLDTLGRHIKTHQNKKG
ZFP SBS#1456 (synthetic), sequence (chain, as listed by the source): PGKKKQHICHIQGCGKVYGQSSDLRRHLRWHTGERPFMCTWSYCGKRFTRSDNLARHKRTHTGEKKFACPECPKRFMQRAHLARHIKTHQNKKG

B1: AAGTGAGCT (dsDNA)
DNA 1: AAGTGAGCT
DNA 2: AGCTCACTT
One may read the Kd as the equilibrium constant for the complex coming apart. The low end stands for a tighter complex, the high end for a looser complex. The molecule B1 had a Kd with ZFP SBS#1485 of 1540 pM.

B2: CTGGGAGTT (dsDNA)
DNA 1: CTGGGAGTT
DNA 2: AACTCCCAG
Regarding B2, the values for the Kd in the data set with ZFP SBS#1465 and with ZFP SBS#1466 were 18 pM and 17 pM, respectively.

B3: CTGGTTGGG (dsDNA)
DNA 1: CTGGTTGGG
DNA 2: CCCAACCAG
For B3, the values for the Kd with ZFP SBS#1490 and with ZFP SBS#1471 were 40 pM and 90 pM, respectively.

B4: CGGGATGAA (dsDNA)
DNA 1: CGGGATGAA
DNA 2: TTCATCCCG
For the molecule B4, the figures for the Kd with ZFP SBS#1455 and in the data set with ZFP SBS#1462 were 43 pM and 50 pM, respectively.

B5: GACGAGGAG (dsDNA)
DNA 1: GACGAGGAG
DNA 2: CTCCTCGTC
As to B5, the values for the Kd with ZFP SBS#1464 and with ZFP SBS#1461 were 2 pM and 14 pM, respectively.

B6: TTGAAGGTT (dsDNA)
DNA 1: TTGAAGGTT
DNA 2: AACCTTCAA
As for B6, the Kd was found to be 470 pM with ZFP SBS#1473; 305 pM with ZFP SBS#1476; 3220 pM with ZFP SBS#1472; 1390 pM with ZFP SBS#1474; 390 pM in the data set with ZFP SBS#1475; 188 pM with ZFP SBS#1487.

B7: GAAGTGGTA (dsDNA)
DNA 1: GAAGTGGTA
DNA 2: TACCACTTC
In the data set with ZFP SBS#1484, B7 gave a Kd of 10 pM.

B8: AAGGGTTCA (dsDNA)
DNA 1: AAGGGTTCA
DNA 2: TGAACCCTT
In the case of B8, the affinity with ZFP SBS#1491, expressed as Kd, was 4120 pM.

B9: GCAGCCCGG (dsDNA)
DNA 1: GCAGCCCGG
DNA 2: CCGGGCTGC
The molecule B9 displayed a Kd with ZFP SBS#1477 of 2310 pM.

B10: GGTGATGTC (dsDNA)
DNA 1: GGTGATGTC
DNA 2: GACATCACC
As for B10, the Kd in the data set with ZFP SBS#1470 came to 156 pM; with ZFP SBS#1468, 80 pM; in the data set with ZFP SBS#1469, 280 pM.

B11: CCGTGTGAC (dsDNA)
DNA 1: CCGTGTGAC
DNA 2: GTCACACGG
Regarding B11, the Kd in the data set with ZFP SBS#1482 is 111000 pM; with ZFP SBS#1483, 20800 pM.

B12: GAGGCTGTT (dsDNA)
DNA 1: GAGGCTGTT
DNA 2: AACAGCCTC
Consider B12, for which binding with ZFP SBS#1463 was put at a Kd of 3 pM. This counts as picomolar.

B13: TGCGGGGCA (dsDNA)
DNA 1: TGCGGGGCA
DNA 2: TGCCCCGCA
Consider B13, for which the Kd with ZFP SBS#1261 stood at 200 pM; in the data set with ZFP SBS#1263, 21000 pM; with ZFP SBS#558, 21000 pM; in the data set with ZFP SBS#1262 it was 3000 pM.

B14: GGAGAGGCT (dsDNA)
DNA 1: GGAGAGGCT
DNA 2: AGCCTCTCC
For the molecule B14, the results for the Kd in the data set with ZFP SBS#1454 and with ZFP SBS#1456 were 10 pM and 16 pM, respectively.

B15: GAAAGTTCA (dsDNA)
DNA 1: GAAAGTTCA
DNA 2: TGAACTTTC
With B15, the Kd with ZFP SBS#1479 was 37000 pM; with ZFP SBS#1480, 62500 pM; in the data set with ZFP SBS#1481, 37000 pM.
